Substitutions are numbered along the chain they refer to.
T1: recombinant human SOST (rhSOST) (human, UniProt Q9BQB4 24-213)
T1 construct: Treated as one molecule; also called recombinant human SOST protein; human sclerostin
T1 sequence: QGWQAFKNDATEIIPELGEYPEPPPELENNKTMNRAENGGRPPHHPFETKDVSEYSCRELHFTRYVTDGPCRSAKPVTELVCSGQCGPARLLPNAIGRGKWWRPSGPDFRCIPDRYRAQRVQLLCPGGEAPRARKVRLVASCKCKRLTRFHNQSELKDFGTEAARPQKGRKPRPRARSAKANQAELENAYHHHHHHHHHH

B1: DP99 (antibody, V domains shown)
VH: EVMLAESGGGLVQPGGSLQLSCAASGFTFSIYAMSWVRQTPEKRLEWVATISGGDTYTYYADSVKGRFTISRDNAKNTLYLHMTGLRSEDTALYYCARHGYDDFDYWGLGTTLTVSS
VL: DVVLTQIPLTLSVTIGQPATISCKSSQSLLDNDGETYLNWLLVRPGQSPKRLIYQVSKLDSGFPERFTGGGSGTDFTLKISRVEAEDLGIYYCWQGTHFPHTFGGGTKLEIK
notes: also called pH99/pL99
B2: DP1 (antibody, human IgG2, kappa, V domains shown)
VH: EVQLVESGGGLVQPGGSLRLSCAASGFTFSIYAMSWVRQAPGKGLEWVALISGGDTYTYYADSVKGRFTISRDNAKNSLYLQMNSLRAEDTAVYYCARHGYDDFDYWGQGTLVTVSS
VL: DVVMTQSPLSLPVTLGQPASISCRSSQSLLDNDGETYLNWFQQRPGQSPRRLIYQVSKLDSGVPDRFSGSGSGTDFTLKISRVEAEDVGVYYCWQGTHFPHTFGGGTKVEIKR
notes: also called pH1/pL1
B3: DM21 (antibody, V domains shown)
VH: EVQLLESGGGLVQPGGSLRLSCAASGHTFSDYWMQWVRQAPGKGLEWIGAIYPGDGDTRYNQKFKDRFTISRDNSKNTLYLQMNSLRAEDTAVYYCARSMDYWGQGTLVTVSS
VL: DIVMTQSPDSLAVSLGERATINCRASKTVDSYGNSFMHWFQQKPGQPPKLLIYHSSNLESGVPDRFSGSGSGTDFTLTISSLQAEDVAVYYCLQTIEDPYTFGQGTKLEIK
notes: also called mH1/mL2
B4: DM1 (antibody, V domains shown)
VH: B3 VH with I48V
VL: B3 VL with Y53H, D98H
notes: also called mH10/mL4
B5: DM2 (antibody, V domains shown)
VH: B3 VH with I48V
VL: B3 VL with D98H
notes: also called mH10/mL14
B6: DM3 (antibody, V domains shown)
VH: B3 VH with I48V
VL: B3 VL with F40Y, D98H
notes: also called mH10/mL15
B7: DM5 (antibody, V domains shown)
VH: B3 VH with I48V
VL: B3 VL with D98F
notes: also called mH10/mL16
B8: DM6 (antibody, V domains shown)
VH: B3 VH with I48V
VL: B3 VL with F40Y, D98F
notes: also called mH10/mL17
B9: DM7 (antibody, V domains shown)
VH: B3 VH with H27F, I48V
VL: B3 VL with D98H
notes: also called mH11/mL14
B10: DM8 (antibody, V domains shown)
VH: B3 VH with H27F, I48V
VL: B3 VL with F40Y, D98F
notes: also called mH11/mL17
B11: DM9 (antibody, V domains shown)
VH: B3 VH with I48V
VL: B3 VL with N34S, S35N, F40Y, D98H
notes: also called mH10/mL18
B12: DM11 (antibody, V domains shown)
VH: B3 VH with S30T
VL: B3 VL with Y53H
notes: also called wt/wt
B13: DM12 (antibody, V domains shown)
VH: B3 VH with S30T
VL: B3 VL with F40Y, Y53H
notes: also called wt/mL1
B14: DM13 (antibody, V domains shown)
VH: B3 VH with S30T
VL: B3 VL
notes: also called wt/mL2
B15: DM14 (antibody, V domains shown)
VH: B3 VH with S30T
VL: B3 VL with F40Y
notes: also called wt/mL3
B16: DM15 (antibody, V domains shown)
VH: B3 VH with S30T
VL: B3 VL with Y53H, D98H
notes: also called wt/mL4
B17: DM16 (antibody, V domains shown)
VH: B3 VH with S30T
VL: B3 VL with Y53H, P99H
notes: also called wt/mL5
B18: DM17 (antibody, V domains shown)
VH: B3 VH with S30T
VL: B3 VL with Y53H, P99S
notes: also called wt/mL6
B19: DM18 (antibody, V domains shown)
VH: B3 VH with S30T
VL: B3 VL with Y53H, E97D, D98E
notes: also called wt/mL8
B20: DM19 (antibody, V domains shown)
VH: B3 VH with S30T
VL: B3 VL with Y53H, D98F, P99H
notes: also called wt/mL10
B21: DM20 (antibody, V domains shown)
VH: B3 VH
VL: B3 VL with Y53H
notes: also called mH1/wt
B22: DM22 (antibody, V domains shown)
VH: B3 VH with H27F, S30T
VL: B3 VL with Y53H
notes: also called mH2/wt
B23: DM23 (antibody, V domains shown)
VH: B3 VH with H27F
VL: B3 VL with Y53H
notes: also called mH3/wt
B24: DM24 (antibody, V domains shown)
VH: B3 VH with H27F
VL: B3 VL
notes: also called mH3/mL2
B25: DM25 (antibody, V domains shown)
VH: B3 VH with S30T, I48V
VL: B3 VL with Y53H
notes: also called mH4/wt
B26: DM26 (antibody, V domains shown)
VH: B3 VH with S30T, G49S
VL: B3 VL with Y53H
notes: also called mH5/wt
B27: DM28 (antibody, V domains shown)
VH: B3 VH with S30T, N61A, K63S, F64V, D66G
VL: B3 VL with Y53H
notes: also called mH8/wt
B28: DM29 (antibody, V domains shown)
VH: B3 VH with I48V
VL: B3 VL
notes: also called mH10/mL2
B29: DM30 (antibody, V domains shown)
VH: B3 VH with I48V
VL: B3 VL with F40Y
notes: also called mH10/mL3
B30: DM31 (antibody, V domains shown)
VH: B3 VH with I48V
VL: B3 VL with F40Y, P99S
notes: also called mH10/mL19
B31: DM32 (antibody, V domains shown)
VH: B3 VH with H27F, I48V
VL: B3 VL
notes: also called mH11/mL2
B32: DM33 (antibody, V domains shown)
VH: B3 VH with H27F, I48V
VL: B3 VL with F40Y, D98H
notes: also called mH11/mL15
B33: DM34 (antibody, V domains shown)
VH: B3 VH with H27F, I48V
VL: B3 VL with F40Y, P99S
notes: also called mH11/mL19

Molecular target: T1, recombinant human SOST (rhSOST)
Assay: SPR Biacore T200, IgG captured via anti-human Fc, rhSOST analyte, 37 C

Row | Binder | Kd | koff | kon
1 | B1 | 0.103 nM | 0.003 s⁻¹ | 2.9e+07 M⁻¹ s⁻¹
2 | B2 | 3.7 nM | 0.00667 s⁻¹ | 1.8e+06 M⁻¹ s⁻¹
3 | B3 | 0.008 nM | 7.41e-05 s⁻¹ | 8.86e+06 M⁻¹ s⁻¹
4 | B4 | 0.566 nM | 0.000741 s⁻¹ | 1.31e+06 M⁻¹ s⁻¹
5 | B5 | 0.321 nM | 0.000797 s⁻¹ | 2.48e+06 M⁻¹ s⁻¹
6 | B6 | 1.84 nM | 0.00285 s⁻¹ | 1.55e+06 M⁻¹ s⁻¹
7 | B7 | 0.193 nM | 0.000754 s⁻¹ | 3.91e+06 M⁻¹ s⁻¹
8 | B8 | 1.18 nM | 0.00251 s⁻¹ | 2.12e+06 M⁻¹ s⁻¹
9 | B9 | 0.966 nM | 0.00402 s⁻¹ | 4.16e+06 M⁻¹ s⁻¹
10 | B10 | 2.93 nM | 0.007 s⁻¹ | 2.39e+06 M⁻¹ s⁻¹
11 | B11 | 2.32 nM | 0.00434 s⁻¹ | 1.87e+06 M⁻¹ s⁻¹
12 | B12 | < 0.0016 nM | < 2.8e-05 s⁻¹ | 1.7e+07 M⁻¹ s⁻¹
13 | B13 | 0.009 nM | 5.62e-05 s⁻¹ | 6.55e+06 M⁻¹ s⁻¹
14 | B14 | < 0.0016 nM | < 2.8e-05 s⁻¹ | 1.72e+07 M⁻¹ s⁻¹
15 | B15 | 0.016 nM | 8.31e-05 s⁻¹ | 5.22e+06 M⁻¹ s⁻¹
16 | B16 | 0.08 nM | 0.000297 s⁻¹ | 3.72e+06 M⁻¹ s⁻¹
17 | B17 | 0.207 nM | 0.000817 s⁻¹ | 3.94e+06 M⁻¹ s⁻¹

Row | Binder | Kd | koff | kon
18 | B18 | 0.044 nM | 0.000207 s⁻¹ | 4.7e+06 M⁻¹ s⁻¹
19 | B19 | 0.179 nM | 0.00104 s⁻¹ | 5.81e+06 M⁻¹ s⁻¹
20 | B20 | 0.096 nM | 0.000388 s⁻¹ | 4.06e+06 M⁻¹ s⁻¹
21 | B21 | 0.015 nM | 0.00012 s⁻¹ | 7.83e+06 M⁻¹ s⁻¹
22 | B22 | 0.015 nM | 0.000152 s⁻¹ | 1.04e+07 M⁻¹ s⁻¹
23 | B23 | 0.01 nM | 0.000134 s⁻¹ | 1.39e+07 M⁻¹ s⁻¹
24 | B24 | 0.035 nM | 0.000239 s⁻¹ | 6.9e+06 M⁻¹ s⁻¹
25 | B25 | 0.017 nM | 0.000101 s⁻¹ | 5.81e+06 M⁻¹ s⁻¹
26 | B26 | 0.053 nM | 0.000222 s⁻¹ | 4.2e+06 M⁻¹ s⁻¹
27 | B27 | 0.099 nM | 0.00035 s⁻¹ | 3.52e+06 M⁻¹ s⁻¹
28 | B28 | 0.014 nM | 0.000101 s⁻¹ | 7.41e+06 M⁻¹ s⁻¹
29 | B29 | 0.045 nM | 0.000239 s⁻¹ | 5.34e+06 M⁻¹ s⁻¹
30 | B30 | 0.816 nM | 0.00171 s⁻¹ | 2.1e+06 M⁻¹ s⁻¹
31 | B31 | 0.054 nM | 0.000419 s⁻¹ | 7.75e+06 M⁻¹ s⁻¹
32 | B32 | 0.093 nM | 0.000563 s⁻¹ | 6.03e+06 M⁻¹ s⁻¹
33 | B33 | 1.65 nM | 0.00356 s⁻¹ | 2.16e+06 M⁻¹ s⁻¹

Molecular target: T1, recombinant human SOST (rhSOST)
Assay: cell-based or functional assay

Row | Binder | EC50, neutralization of rhSOST-mediated inhibition of Wnt-10B luciferase reporter activity in U-2OS-TF-Wnt10B cells | EC50, restoring WNT10b-stimulated luciferase activity suppressed by 1 ug/ml rhSOST in U2OS TOPFlash cells
34 | B1 | 5.95 ug/ml (printed 'Mg/ml') | 37 nM
35 | B2 | 22 ug/ml (printed 'Mg/ml') | 
36 | B3 | 5.53 ug/ml (printed 'Mg/ml') | 

From patent WO2015087187A1 (dated 2015)
